Measured values from patent US10662235B2, “Cysteine engineered fibronectin type III domain binding molecules” (Janssen Biotech, Inc., priority 2016, dated 2020).
Entries after “also recorded” stand apart in the source; their conditions may differ.

Experiments:
[1] = test system: H292-HGF human lung cancer xenograft; experiment: Efficacy of bispecific molecule and other inhibitors in H292-HGF xenograft model (tumor volume, T/C, T-C); type: in vivo, SCID/Beige mice; details: for antitumor activity: H292-HGF xenograft
Protocol: The H292-HGF cells were maintained in vitro in RPMI1640 medium supplemented with fetal bovine serum (10% v/v), and L-glutamine (2 mM) at 37° C. in an atmosphere of 5% CO2 in air. The cells were routinely subcultured twice weekly by trypsin-EDTA treatment. The cells growing in an exponential growth phase were harvested and counted for tumor inoculation.
Each mouse was inoculated subcutaneously at the right flank region with H292-HGF tumor cells (2×10^6) in 0.1 ml of PBS with cultrex (1:1) for tumor development. The treatments were started when the mean tumor size reached 139 mm^3. […] The date of tumor cell inoculation was denoted as day 0.
Before commencement of treatment, all animals were weighed and the tumor volumes were measured. Since the tumor volume can affect the effectiveness of any given treatment, mice were assigned into groups using randomized block design based upon their tumor volumes. […] The randomized block design was used to assign experimental animals to groups. First, the experimental animals were divided into homogeneous blocks according to their initial tumor volume. Secondly, within each block, randomization of experimental animals to treatments was conducted.
The major endpoint was whether tumor growth can be delayed or tumor bearing mice can be cured. Tumor size was measured twice weekly in two dimensions using a caliper, and the volume was expressed in mm^3 using the formula: V=0.5a×b^2 where a and b are the long and short diameters of the tumor, respectively. The tumor size was then used for calculations of both T-C and T/C values. T-C was calculated with T as the time (in days) required for the mean tumor size of the treatment group to reach 1000 mm^3, and C was the time (in days) for the mean tumor size of the control group to reach the same size. The T/C value (in percent) was an indication of antitumor efficacy; T and C were the mean volume of the treated and control groups, respectively, on a given day. Complete tumor regression (CR) is defined as tumors that are reduced to below the limit of palpation (62.5 mm^3). Partial tumor regression (PR) is defined as tumors that are reduced from initial tumor volume. A minimum duration of CR or PR in 3 or more successive tumor measurements is required for a CP or PR to be considered durable.
Statistical analyses of difference in tumor volume among the groups were evaluated using a one-way ANOVA followed by individual comparisons using Games-Howell (equal variance not assumed). All data were analyzed using SPSS 18.0. p<0.05 was considered to be statistically significant.

[2] = Body weight loss / tolerability in H292-HGF xenograft study; details: treatment and 2 weeks observation
Protocol: At the time of routine monitoring, the animals were checked for any effects of tumor growth and treatments on normal behavior, such as mobility, visual estimation of food and water consumption, body weight gain/loss (body weights were measured twice weekly), eye/hair matting and any other abnormal effect.
Animals for which the body weight loss exceeded 20%, or for which the mean tumor size of the group exceeds 2000 mm^3 were euthanized. The study was terminated after two weeks of observation after the final dose.

[3] = test system: H292-HGF tumor xenografts; experiment: Tumor efficacy study with bispecific EGFR/c-Met molecules (tumor growth inhibition); type: in vivo, SCID Beige mice; details: 25 mg/kg three times per week (FIG. 10)
Protocol: One week after implantation, mice were stratified into groups with equivalent tumor volumes (mean tumor volume=77.9+/−1.7 mm^3). Mice were dosed three times per week with the bispecific molecules and tumor volumes were recorded twice weekly.

[4] = Thermal stability by differential scanning calorimetry; type: physicochemical; details: cysteine-NEM conjugates; for First Scan Tm: DSC 25-100° C., 1° C. per minute; for Second Scan Tm: second identical scan
Protocol: The thermal stability of cysteine-NEM conjugates was assessed by differential scanning calorimetry (DSC). The only the conjugates tested were those determined to express at high levels, conjugate efficiently, and retain EGFR binding. Additionally, cysteine variants within the BC and FG loops were excluded. Stability data was generated by heating a 400 μL aliquot of the variant from 25° C. to 100° C. at a scan rate of 1° C. per minute in a VP-DSC instrument (MicroCal). A second identical scan was completed on the sample in order to assess the reversibility of thermal folding/unfolding. Data was fitted to a 2-state unfolding model in order to calculate the melting temperature (Table 10).
Thermal Stability of c-Met-Binding FN3 Domains Differential scanning calorimetry in PBS was used to assess the stability of each FN3 domain.

[5] = Analytical size exclusion chromatography (aggregation state, percent monomer); type: physicochemical; details: NEM-conjugated cysteine variants; SEC, Abs280
Protocol: Size exclusion chromatography was used to determine the aggregation state of the FN3 domains binding EGFR. Aliquots (10 μL) of each purified FN3 domain were injected onto a Superdex 75 5/150 column (GE Healthcare) at a flow rate of 0.3 mL/min in a mobile phase of PBS pH 7.4. Elution from the column was monitored by absorbance at 280 nm.
The percent monomer for each protein was determined by integrating the Abs280 signal and comparing the peak in the monomer region (5.5-6 minutes) to the peaks in the oligomer region (4-5.3 minutes).

H1573 cells = experiment: Cytotoxicity assay of cytotoxin conjugates in H1573 cells; type: cell-based, human; details: MMAF conjugates, Cell TiterGlo at 70 hours, read-out: IC50 (cell killing)
Protocol: Cell killing was assessed by measuring viability of the EGFR-overexpressing human tumor cell line H1573 following exposure to the cysteine variant-cytotoxin conjugates. […] Cells were allowed to attach overnight at 37° C. in a humidified 5% CO2 atmosphere. Medium was aspirated from 96-well plate and cells were treated with 50 uL of fresh media and 50 uL of 2× inhibitor made up in fresh media. Cell viability was determined by an endpoint assay with Cell TiterGlo (Promega) at 70 hours. IC50 values were determined by fitting data to the equation for a sigmoidal dose response with variable slope using GraphPad Prism 5 (GraphPad Software).
Conjugates consisting of ECB147 cysteine variants, 83v2-cys, or Tencon-cys linked to a cytotoxic tubulin inhibitor from the auristatin family (FIG. 2) were tested for target-dependent cytotoxicity in cancer cells. The inhibitor was linked to the cysteine-containing protein via a non-cleavable PEG4 linker or an enzyme-cleavable valine-citrulline or valine-lysine linker.

EGFR = EGFR (Homo sapiens, UniProt P00533); experiment: EGFR binding assay (ELISA) of NEM-conjugated cysteine variants relative to parent
MDA-MB-435 cells = experiment: Cytotoxicity assay of cytotoxin conjugates in EGFR-negative MDA-MB-435 cells; type: cell-based, human; details: EGFR-negative cell line; CellTiter Glo or IncuCyte object count at 66, 72 or 90 hour
Protocol: Cell killing was assessed by measuring viability of the EGFR-overexpressing human tumor cell line H1573 following exposure to the cysteine variant-cytotoxin conjugates. Cells were plated in black-well, clear bottomed, tissue culture-treated plates (Falcon 353219) at 7000/well in 100 μL/well of phenol red free RPMI media (Gibco 11835-030) with 5% fetal bovine serum (Gibco). Cells were allowed to attach overnight at 37° C. in a humidified 5% CO2 atmosphere. Medium was aspirated from 96-well plate and cells were treated with 50 uL of fresh media and 50 uL of 2× inhibitor made up in fresh media. Cell viability was determined by an endpoint assay with Cell TiterGlo (Promega) at 70 hours. IC50 values were determined by fitting data to the equation for a sigmoidal dose response with variable slope using GraphPad Prism 5 (GraphPad Software). Table 11 reports IC50 values obtained from analysis of the CellTiter Glo data.
Conjugates consisting of ECB147 cysteine variants, 83v2-cys, or Tencon-cys linked to a cytotoxic tubulin inhibitor from the auristatin family (FIG. 2) were tested for target-dependent cytotoxicity in cancer cells. […] Cell killing was assessed by measuring viability of the EGFR-overexpressing human tumor cell lines H1573 and A431 as well as the EGFR-negative tumor cell line MDA-MB-435 following exposure to the protein-cytotoxin conjugates using the procedure described in Example 4.

Molecule	First Scan Tm [4] [°C]	Second Scan Tm [4] [°C]	Percent monomer [5] [%]	IC50 (H1573 cells) [nM]	also measured
C[C@@H](Oc1cc(-c2cnn(C3CCNCC3)c2)cnc1N)c1c(Cl)ccc(F)c1Cl [Crizotinib]	–	–	–	–	antitumor activity [1]: no antitumor activity; T/C value ([1]; day 23): 120%; toxicity / body weight loss / tolerability [2]: More severe body weight loss
C#Cc1cccc(Nc2ncnc3cc(OCCOC)c(OCCOC)cc23)c1 [Erlotinib]	–	–	–	–	toxicity / body weight loss / tolerability [2]: More severe body weight loss
ECB18: bispecific P54AR4-83v2 / P114AR5P74-A5 linked to albumin binding domain, SEQ ID 118 (protein, Bispecific EGFR/c-Met binding molecule) MLPAPKNLVVSEVTEDSARLSWDDPWAFYESFLIQYQESEKVGEAIVLTVPGSERSYDLTGLKPGTEYTVSIYGVHNVYKDTNMRGLPLSAIFTTAPAPAPAPAPLPAPKNLVVSRVTEDSARLSWTAPDAAFDSFWIRYDEVVVGGEAIVLTVPGSERSYDLTGLKPGTEYYVNILGVKGGSISVPLSAIFTTAPAPAPAPAPLAEAKVLANRELDKYGVSDYYKNLINNAKTVEGVKALLDEILAALP	–	–	–	–	tumor growth inhibition (TGI) [3]: delay in tumor growth
ECB38: bispecific P54AR4-83v2 / P114AR7P94-A3 linked to albumin binding domain, SEQ ID 120 (protein, Bispecific EGFR/c-Met binding molecule) MLPAPKNLVVSEVTEDSARLSWDDPWAFYESFLIQYQESEKVGEAIVLTVPGSERSYDLTGLKPGTEYTVSIYGVHNVYKDTNMRGLPLSAIFTTAPAPAPAPAPLPAPKNLVVSRVTEDSARLSWTAPDAAFDSFWIRYFEFLGSGEAIVLTVPGSERSYDLTGLKPGTEYVVNIMGVKGGKISPPLSAIFTTAPAPAPAPAPLAEAKVLANRELDKYGVSDYYKNLINNAKTVEGVKALLDEILAALP	–	–	–	–	tumor growth inhibition (TGI) [3]: showed the most efficacy; antitumor activity [1]: complete tumor regression (CR) in all mice; also recorded: complete response; toxicity / body weight loss / tolerability [2]: Slight toxicity; also recorded: tolerated in 7 out of 10 mice
ECB39: bispecific P53A1R5-17v2 / P114AR7P94-A3 linked to albumin binding domain, SEQ ID 121 (protein, Bispecific EGFR/c-Met binding molecule) MLPAPKNLVVSEVTEDSARLSWADPHGFYDSFLIQYQESEKVGEAIVLTVPGSERSYDLTGLKPGTEYTVSIYGVHNVYKDTNMRGLPLSAIFTTAPAPAPAPAPLPAPKNLVVSRVTEDSARLSWTAPDAAFDSFWIRYFEFLGSGEAIVLTVPGSERSYDLTGLKPGTEYVVNIMGVKGGKISPPLSAIFTTAPAPAPAPAPLAEAKVLANRELDKYGVSDYYKNLINNAKTVEGVKALLDEILAALP	–	–	–	–	tumor growth inhibition (TGI) [3]: showed the most efficacy
T59C (protein, EGFR binding FN3 domain; EGFR-binding FN3 domain) chain 1: MLPAPKNLVVSEVTEDSARLSWDDPWAFYESFLIQYQESEKVGEAIVLTVPGSERSYDLCGLKPGTEYTVSIYGVHNVYKDTNMRGLPLSAIFTT chain 2: LPAPKNLVVSEVTEDSARLSWDDPWAFYESFLIQYQESEKVGEAIVLTVPGSERSYDLCGLKPGTEYTVSIYGVHNVYKDTNMRGLPLSAIFTT	67	67	100	0.44	–
T68C (protein, EGFR binding FN3 domain; EGFR-binding FN3 domain) chain 1: MLPAPKCLVVSEVTEDSARLSWDDPWAFYESFLIQYQESEKVGEAIVLTVPGSERSYDLTGLKPGTEYTVSIYGVHNVYKDTNMRGLPLSAIFTT chain 2: LPAPKCLVVSEVTEDSARLSWDDPWAFYESFLIQYQESEKVGEAIVLTVPGSERSYDLTGLKPGTEYTVSIYGVHNVYKDTNMRGLPLSAIFTT	72	72	100	–	EGFR binding relative to P54AR4-83v2 parent, 10 nM variant in assay (EGFR; 10 nM): 0.83; EGFR binding relative to P54AR4-83v2 parent, 100 nM variant in assay (EGFR; 100 nM): 1.04; EGFR binding relative to P54AR4-83v2 parent, 500 nM variant in assay (EGFR; 500 nM): 0.95
S70C (protein, EGFR binding FN3 domain; EGFR-binding FN3 domain) chain 1: MLPAPKNLVVSEVTEDSARLSWDDPWAFYESFLIQYQESEKVGEAIVLTVPGSERSYDLTGLKPGTEYTVCIYGVHNVYKDTNMRGLPLSAIFTT chain 2: LPAPKNLVVSEVTEDSARLSWDDPWAFYESFLIQYQESEKVGEAIVLTVPGSERSYDLTGLKPGTEYTVCIYGVHNVYKDTNMRGLPLSAIFTT	73	72	100	1.14	–
S89C (protein, EGFR binding FN3 domain; EGFR-binding FN3 domain) chain 1: MLPAPKNLVVSEVTEDSARLSWDDPWAFYESFLIQYQESEKVGEAIVLTVPGSERSYDLTGLKPGTEYTVSIYGVHNVYKDTNMRGLPLCAIFTT chain 2: LPAPKNLVVSEVTEDSARLSWDDPWAFYESFLIQYQESEKVGEAIVLTVPGSERSYDLTGLKPGTEYTVSIYGVHNVYKDTNMRGLPLCAIFTT	72	71	96	0.94	–
I91C (protein) LPAPKNLVVSEVTEDSARLSWDDPWAFYESFLIQYQESEKVGEAIVLTVPGSERSYDLTGLKPGTEYTVSIYGVHNVYKDTNMRGLPLSACFTT	70	69	100	0.54	–
83v2cy5-mal-PEG4-VC-MMAE (conjugate) MLPAPKNLVVSEVTEDSARLSWDDPWAFYESFLIQYQESEKVGEAIVLTVPGSERSYDLTGLKPGTEYTVSIYGVHNVYKDTNMRGLPLSAIFTTGGHHHHHHC	–	–	–	–	IC50 (MDA-MB-435 cells): 512 nM
83v2cy5-mal-PEG4-VK-MMAE (conjugate) MLPAPKNLVVSEVTEDSARLSWDDPWAFYESFLIQYQESEKVGEAIVLTVPGSERSYDLTGLKPGTEYTVSIYGVHNVYKDTNMRGLPLSAIFTTGGHHHHHHC	–	–	–	–	IC50 (MDA-MB-435 cells): 62 nM
